Assay results: EP4703384A1

Key:
[1] = molecular target: human GPRC5D protein (human) (UniProt Q9NZD1); assay: FACS on RPMI-8226 cells; negative control
[2] = molecular target: human GPRC5D protein (human) (UniProt Q9NZD1); assay: FACS on NCI-H929 cells; negative control
[3] = molecular target: human GPRC5D protein (human) (UniProt Q9NZD1); assay: FACS on MM.1S cells; negative control

human GPRC5D protein (human), sequence (Q9NZD1 whole entry): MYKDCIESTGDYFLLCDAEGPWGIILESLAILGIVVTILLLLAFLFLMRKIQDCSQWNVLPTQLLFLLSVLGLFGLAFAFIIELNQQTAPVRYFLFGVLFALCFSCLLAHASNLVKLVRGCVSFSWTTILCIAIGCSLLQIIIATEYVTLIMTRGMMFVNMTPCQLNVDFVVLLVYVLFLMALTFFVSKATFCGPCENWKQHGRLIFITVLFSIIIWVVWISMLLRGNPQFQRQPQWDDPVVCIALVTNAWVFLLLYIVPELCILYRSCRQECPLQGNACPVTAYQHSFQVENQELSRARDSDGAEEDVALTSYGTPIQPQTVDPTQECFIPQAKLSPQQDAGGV

“hIgG1 monoclonal antibody (Biointron, Cat. No. B117901)” gave a Top(MFI) [1] of 3860 MFI, a Top(MFI) [2] of 4180 MFI and a Top(MFI) [3] of 6770 MFI.
